B1: 50S large subunit ribosomal protein L7/L12, wild type, His-tagged (natural protein, S. Typhimurium, UniProt P0A299 1-121, looked up)
chain: MSITKDQIIEAVSAMSVMDVVELISAMEEKFGVSAAAAVAVAAGPAEAAEEKTEFDVILKAAGANKVAVIKAVRGATGLGLKEAKDLVESAPAALKEGVSKDDAEALKKSLEEAGAEVEVK
notes: 50S ribosomal protein L7/L12 (RplL), S. Typhimurium strain 14028S, gene amplified from the genomic DNA; The r-protein genes seem to have been cloned into pSUMO3; also called WT L7/L12; RplL; source: E. coli BL21, purified (Ni-NTA); not shown: His6, C-terminal, kept
B2: L7/L12 K65R, His-tagged (natural protein)
chain: MSITKDQIIEAVSAMSVMDVVELISAMEEKFGVSAAAAVAVAAGPAEAAEEKTEFDVILKAAGANRVAVIKAVRGATGLGLKEAKDLVESAPAALKEGVSKDDAEALKKSLEEAGAEVEVK
notes: 50S ribosomal protein L7/L12 (RplL), S. Typhimurium strain 14028S; Mimic of the non-acetylated form; same construct as m2 with the substitution; source: E. coli, purified (Ni-NTA); not shown: His6, C-terminal, kept
B3: L7/L12 K65Q, His-tagged (natural protein)
chain: MSITKDQIIEAVSAMSVMDVVELISAMEEKFGVSAAAAVAVAAGPAEAAEEKTEFDVILKAAGANQVAVIKAVRGATGLGLKEAKDLVESAPAALKEGVSKDDAEALKKSLEEAGAEVEVK
notes: 50S ribosomal protein L7/L12 (RplL), S. Typhimurium strain 14028S; Acetylation mimic; same construct as m2 with the substitution; source: E. coli, purified (Ni-NTA); not shown: His6, C-terminal, kept
B4: L7/L12 K70R, His-tagged (natural protein)
chain: MSITKDQIIEAVSAMSVMDVVELISAMEEKFGVSAAAAVAVAAGPAEAAEEKTEFDVILKAAGANKVAVIRAVRGATGLGLKEAKDLVESAPAALKEGVSKDDAEALKKSLEEAGAEVEVK
notes: as for B2
B5: L7/L12 K70Q, His-tagged (natural protein)
chain: MSITKDQIIEAVSAMSVMDVVELISAMEEKFGVSAAAAVAVAAGPAEAAEEKTEFDVILKAAGANKVAVIQAVRGATGLGLKEAKDLVESAPAALKEGVSKDDAEALKKSLEEAGAEVEVK
notes: as for B3

Biological target: T1, Elongation factor EF-Tu, His-tagged, biotinylated (S. Typhimurium, UniProt P0A1H5 1-394, biotin (site not stated))
T1 construct: Elongation factor Tu (tufA), S. Typhimurium strain 14028S, gene amplified from the genomic DNA; The methods sentence on vectors (pSUMO3 and pQE80, 'respectively') leaves open which vector was used; probably pQE80 with a C-terminal 6xHis; also called tufA; source: E. coli BL21, purified (Ni-NTA); biotinylated, PD-10 column; not shown: His6, C-terminal, kept
Test: BLI; printed as thin-film interferometry (TFI), GatorPrime label-free analyzer; biotinylated EF-Tu loaded on the sensors; L7/L12 or mutants in solution at 12.5, 6.25, 3.125, 1.563, 0.781 and 0.391 uM in binding buffer at pH 7.4
Conditions: both partners purified

T1 sequence (P0A1H5 whole entry): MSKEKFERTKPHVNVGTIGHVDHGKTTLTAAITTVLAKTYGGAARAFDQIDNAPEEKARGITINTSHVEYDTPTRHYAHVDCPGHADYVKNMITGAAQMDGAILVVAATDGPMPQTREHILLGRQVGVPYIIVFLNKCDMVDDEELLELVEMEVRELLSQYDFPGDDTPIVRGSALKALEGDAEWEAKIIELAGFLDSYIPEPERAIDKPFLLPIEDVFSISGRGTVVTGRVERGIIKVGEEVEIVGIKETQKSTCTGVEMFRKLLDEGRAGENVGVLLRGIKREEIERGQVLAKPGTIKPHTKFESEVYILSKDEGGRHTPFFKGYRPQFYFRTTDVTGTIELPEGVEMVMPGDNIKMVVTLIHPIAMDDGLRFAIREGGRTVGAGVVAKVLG

In order of falling Kd:
1. B2  2690 nM
2. B4  1810 nM
3. B3  1520 nM
4. B5  1310 nM
5. B1  740 nM
